Source: patent US20200199244A1 (published 2020)
“And” between values parts separate entries of the source, which are not always exact repeats. Equal values may be shown once.

Columns and labels:
[1] = target: T1, human CD40 (BMS, CY24FEB06-01) (human, UniProt P25942 21-193); assay: ELISA RBA, competition with IZ-CD40L for soluble human CD40;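 further: Neutravidin-coated 384-well plates, dAb–human CD40 complex incubated 2 h at room temperature, read-out as absorbance at 450 nm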
T1 construct: Soluble human CD40 reagent of the ELISA RBA
T1 sequence (P25942 21-193 limits assumed): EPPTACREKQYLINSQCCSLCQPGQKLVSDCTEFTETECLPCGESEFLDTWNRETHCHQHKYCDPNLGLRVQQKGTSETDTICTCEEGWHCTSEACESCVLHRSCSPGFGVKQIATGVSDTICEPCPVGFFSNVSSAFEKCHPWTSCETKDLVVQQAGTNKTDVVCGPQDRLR

[2] = target: T2, human CD40 (BMS, CY24FEB06-01) (human, UniProt P25942 21-193); assay: ELISA RBA, competition with IZ-CD40L;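 further: Neutravidin-coated 384-well plate, dAb–human CD40 complex bound for 2 h at room temperature, absorbance read at 450 nm after HCl stop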
T2 construct: Soluble reagent of the bead and ELISA RBA; It is detected with an anti-human IgG (Fc) mAb, so it may be a CD40-Ig fusion
T2 sequence (P25942 21-193 limits assumed): as above

| Binder | EC50 [1] [nM] | EC50 [2] |
| --- | --- | --- |
| BMS3h-193-2513 (other, domain antibody (dAb): single human V kappa domain) VL: DIQMTQSPSSLSASVGDRVTITCRASEAIGRRLNWYQQKPGKAPRLLIYLATRLQSGVPSRFSGSGSGTDFTLTISSLQPEDFATYYCHQYESPPLTFGQGTKVEIKR | 130 | – |
| BMS3h-193-2515 (other, domain antibody (dAb): single human V kappa domain) VL: DIQMTQSPSSLSASVGDRVTITCRASLNIGRRLNWYQQKPGKAPRLLIYLATRLQSGVPSRFSGSGSGTDFTLTISSLQPEDFATYYCHQYESPPLTFGQGTKVEIKR | 100 | – |
| BMS3h-193-2516 (other, domain antibody (dAb): single human V kappa domain) VL: DIQMTQSPSSLSASVGDRVTITCRASQTIERRLNWYQQKPGKAPRLLIYLSSKLQSGVPSRFSGSGSGTDFTLTISSLQPEDFATYYCHQYESPPLTFGQGTKVEIKR | 100 | – |
| BMS3h-193-2514 (other, domain antibody (dAb): single human V kappa domain) VL: DIQMTQSPSSLSASVGDRVTITCRASTSIARRLNWYQQKPGKAPRLLIYLATRLQSGVPSRFSGSGSGTDFTLTISSLQPEDFATYYCHQYESPPLTFGQGTKVEIKR | 525 | – |
| BMS3h-217-1 (other, dAb, single VK) VL: NIQMTQSPSSLSASVGDRVTITCRASHFIGTLLTWYQHKPGKAPKLLITYGSLLQSGVPSRFSGSGSGTDFTLTISSLQPEDFATYYCGQGVLWPATFGQGTKVEIKR | – | 23 nM |
| BMS3h-217-23 (other, dAb, single VK) VL: DIQMTQSPSSLSASVGDRVTITCRASHFIGSLLSWYQVKPGKAPKLLITYGSLLQSGVPSRFSGSGSGTDFTLTISSLQPEDFATYYCGQGVLWPATFGQGTTVEIKR | – | 16 nM |
| BMS3h-217-3 (other, dAb, single VK) VL: DIQMTQSPSSLTASVGDRVTITCRASHFIGTLLSWYQQKPGKAPKLLVTYGSLLQSGVPSRFSGSGSGTDFTLTISNLQPEDFATYYCGQGVLWPPTFGQGTKVENIR | – | 32 nM |
| BMS3h-217-9 (other, dAb, single VK) VL: DIQMTQSPSSLSASVGDRVTITCRASHFIGTLLSWYQHKPGKAPKLLITYGSMLQSGVPSRFSGSGSGTDFTLTISSLQPEDFATYYCGQGVLWPATFGQGTKVEIKR | – | 53 nM |
| BMS3h-217-15 (other, dAb, single VK) VL: DIQMTQSPSSLYASVGDRVTITCRVSHFIGTLLSWYQQKPGKAPKLLITYGSLLQSGVPSRFSGSGSGTDFTLSISSLQPEDFATYYCGQGVLWPPTFGQGTKVEIKQ | – | 21 nM |
| BMS3h-217-7 (other, dAb, single VK) VL: DIQMTQSPSSLSASVGDRVTITCRASHFIGSLLSWYQHKPGKAPKLLITYGSLLQSGVPSRFSGSGSGTDFTLTISSLQPEDFATYYCGQGVLWPATFGQGTKVEIKR | – | 39 nM |
| BMS3h-217-17 (other, dAb, single VK) VL: DIQIIQSPSSLSASVGDRVTITCRASHFIGTLLSWYQQKPGKAPKLLITYGSLLQSGVPSRFSGSGSGTDFTLTISSLQPEDFATYYCGQGVLWPPTFGQGTKVEIKR | – | 60 nM |
| BMS3h-217-2 (other, dAb, single VK) VL: DIQMTQSPSSLSASVGDRVTITCRASHFIGTLLSWYQQKPRKAPKLLITYGSLLQSGVPSRFSGSGSGTDFTLTISSLHPEDFATYYCGQGVLWPPTFGQGTKVEIKR | – | 78 nM |
| BMS3h-217-8 (other, dAb, single VK) VL: DIQMTQSPSSLSASVGDRVTITCRASHFIGTLLSWYQHKPGKAPKLLITYGSLLQSGVPSRFSGSGSGTDFTLTISSLQPEDFATYYCGQGVLWPATFGQGTKVEIKR | – | 6 nM |
| BMS3h-217-16 (other, dAb, single VK) VL: DIQMTQSPSSLSASVGDRVTITCRASHFIGTLLSWYQQKPRKAPKLLITYGSLLQSGVPSRFSGSGSGTDFTLTISSLQPEDFATYYCGQGVLWPPTFGQGTKVEIKR | – | 9 nM |
| BMS3h-56-7 (other, dAb, single VH) VH: EVQLLESGGGLVQPGGSLRLSCAASGFTFRDYEMWWVRQAPGKGLERVSAINPQGTRTYYADSVKGRFTISRDNSKNTLYLQMNSLRAEDTSVYHCAKPPFIFGDWGPGTLVTVSS | – | 5.5 nM |
| BMS3h-56-19 (other, dAb, single VH) VH: EVQLLESGGGLVQPGGSLRLSCAASGFTFRDYEMWWVRQAPGKGLERVSAINPQGTRTYYADSVKGRFTISRDNSKNTLYLQMNSLRAEDTAVYHCAKLPFTFEDWGQGTLVTVSS | – | 5.5 nM and 5.1 nM |
| BMS3h-56-22 (other, dAb, single VH) VH: EVQLLESGGGLVQPGGSLRLSCAASGFTFRDYEMWWVRQAPGKGLERVSAINPQGTRTYYADSVKGRFTISRDNSKNTLYLQMNSLRADDTAVYHCTKLPFIFEYWGQGTLVTVSS | – | 6.5 nM |
| BMS3h-56-23 (other, dAb, single VH) VH: EVQLLESGGGLVQPGGSLRLSCAASGFTFRDYEMWWVRQAPGKGLERVSAINPQGTRTYYADSVMGRFTISRDNSKNTLYLQMNSLRAEDTAVYYCAKEPYSFDSWGQGTLVTVSS | – | 24.5 nM |
| BMS3h-56-16 (other, dAb, single VH) VH: EVQLLESGGGLVQPGGSLRLSCAASGFTFRDYEMWWVRQAPGKGLERVSAINPQGTRTYYADSVMGRFTISRDNSKNTLYLQMNSLRAEDTAVYYCAKLPFTFEDWGQGTLVTVSS | – | 7 nM |
| BMS3h-56-18 (other, dAb, single VH) VH: EVQLLESGGGLVQPGGSLRLSCAASGFTFRDYEMWWVRQAPGKVLERVSAINPQGTRTYYADSVKGRFTISRDNSKNMLYLQMNSLRAEDTAVYYCAKLPFTFEDWGQGTLVTVSS | – | 6.5 nM |
| BMS3h-56-25 (other, dAb, single VH) VH: EVQLLESGGGLVQPGGSLRLSCAASGFTFRDYEMWWVRRAPGKGLERVSAINPQGTRTYYADSVMGRFTISRDNSKNTLYLQMNSLRAEDTAVYYCAKLPFTFDDWGQGTLVTVSS | – | 5.5 nM |
| BMS3h-56-20 (other, dAb, single VH) VH: EVQLLESGGGLVQPGGSLRLSCAASGFTFRDYEMWWVRQAPGKGLERVSAINPQGTRTYYADSVKGRFTISRDNSKNTLYLQMNSLRAEDTAVYYCTKLPFTFEDWGQGTLVTVSS | – | 6.8 nM |
| BMS3h-56-8 (other, dAb, single VH) VH: EVQLLESGGGLVQPGGSRRLSCAASGFTFRDYEMWWVRQAPGKGLERVSAINPQGTRTYYADSVKGRFTISRDNSKNTLYLQMNSLRAEDTAVYYCAKLPFTFEDWGQGTLVTVSS | – | 6.2 nM |
| BMS3h-56-24 (other, dAb, single VH) VH: EVQLLESGGGLVQPGGSLRLSCAASGFTFRDYEMWWVRQAPGKGLERVSAINPQGTRTYYADSVMGRFTISRDNSKNTLYLQMNSLRAEDTAVYHCAKEPYSYDYWGQGTLVTVSS | – | 11.7 nM |
| BMS3h-56-21 (other, dAb, single VH) VH: EVQLLESGGGLVQPGGSLRLSCAASGFTFRDYEMWWVRQAPGKGLERVSAINPQGTRTYYADSVKGRFTISRDNSKNTLYLQMNSLRAEDTAVYYCLKLPFTFEDWGQGTLVTVSS | – | 6.5 nM and 6.2 nM |
| BMS3h-56-17 (other, dAb, single VH) VH: EVQLLESGGGLVQPGGSLRLSCAASGFSFRDYEMWWYRQAPGKGLERVSAINPQGTRTYYADSVKGRFTISRDNSKNTLYLQMNSLRAEDTAVYYCAKLPFTFEDWGQGTLVTVSS | – | 66 nM |
